Source: the supplement of paper PMC6757056
± gives the standard deviation of the averaged measurements.

B1: library; a variant is named by its letters at N, in order (parent)
chain: GCUGUCACCGAGAAACUGUGAAGUAUAUCUUAAACCUGGGCACUUAAAAGAUAUAUGGAGUUAGUAGUGCAACCUGCUCGGUCUGAUGAGUCCNNNNNNGGACGAAACAGC

Key:
cyclic di-GMP [1] = variants of: B1; test: normalized RNA/DNA level without ligand (relative to sTRSVctl = 100) (log10 (% of sTRSVctl)); HEK293T; ligand: cyclic di-GMP (c-di-GMP-II aptamer); higher = less ribozyme self-cleavage, higher mRNA level; conditions: reporter: mCherry (pCS4076), ligand present: no
Method in brief: (§1)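 Only sequences with at least 100 DNA reads were analyzed, from HEK293T cells transfected with 4 µg per 6-well well of ribozyme switch library plasmids 72 h before RNA extraction with EDTA. Any ligand was added 1 h before transfection. RNA level was defined as RNA over DNA reads, normalized to a spiked-in non-cleaving sequence or to the top sequences, then scaled and log-transformed. The top set was 25 sequences, and the scaling was ×100 followed by log10.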

cyclic di-GMP [2] = variants of: B1; test: normalized RNA/DNA level with ligand (relative to sTRSVctl = 100) (log10 (% of sTRSVctl)); HEK293T; ligand: cyclic di-GMP (c-di-GMP-II aptamer); ligand concentration (+) RNA-Seq: 1 mM; higher = less ribozyme self-cleavage, higher mRNA level; conditions: reporter: mCherry (pCS4076), ligand present: yes
Method in brief: as §1

Variant	normalized RNA/DNA level without ligand (log10) (cyclic di-GMP [1])	normalized RNA/DNA level with ligand (log10) (cyclic di-GMP [2])
CUGACG	1.8 ± 0.028	1.9 ± 0.17
CUGACU	1.52 ± 0.05	1.75 ± 0.11
CUGACA	1.51 ± 0.086	1.7 ± 0.075
AUCGUC	1.85 ± 0.056	1.92 ± 0.092
AUCGUA	1.511 ± 0.0037	1.72 ± 0.16
AUCGUG	1.59 ± 0.084	1.74 ± 0.027
AUCGUU	1.6 ± 0.035	1.78 ± 0.048
UUCGGU	1.75 ± 0.029	1.87 ± 0.056
UUCGGG	1.774 ± 0.011	1.9 ± 0.13
GUCCUC	1.75 ± 0.026	1.9 ± 0.1
GUCCUU	1.7 ± 0.019	1.87 ± 0.1
GUCCUA	1.709 ± 0.0036	1.88 ± 0.083
GUCGAG	1.617 ± 0.0063	1.76 ± 0.12
GUCGAC	1.5985 ± 0.0011	1.76 ± 0.16
GUCGAA	1.49 ± 0.068	1.65 ± 0.11
GUCGAU	1.59 ± 0.11	1.71 ± 0.096
GUCCGU	1.65 ± 0.038	1.82 ± 0.069
GUCCGC	1.84 ± 0.03	1.93 ± 0.071
GUCCGA	1.63 ± 0.024	1.78 ± 0.14
GUCCGG	1.84 ± 0.12	1.96 ± 0.11

Variant	normalized RNA/DNA level without ligand (log10) (cyclic di-GMP [1])	normalized RNA/DNA level with ligand (log10) (cyclic di-GMP [2])
CUCCAA	1.46 ± 0.096	1.72 ± 0.083
CUCCAG	1.73 ± 0.07	1.86 ± 0.055
CUCCAC	1.719 ± 0.016	1.84 ± 0.092
CUCCAU	1.58 ± 0.035	1.82 ± 0.057
GUCUUC	1.7 ± 0.015	1.87 ± 0.097
GUCUUA	1.677 ± 0.0086	1.83 ± 0.15
GUCUUU	1.7 ± 0.033	1.83 ± 0.092
AUGAUC	1.65 ± 0.049	1.82 ± 0.087
AUGAUA	1.53 ± 0.069	1.71 ± 0.14
UUCCGG	1.84 ± 0.045	1.93 ± 0.043
UUCCGC	1.771 ± 0.0064	1.89 ± 0.084
UUCCGA	1.79 ± 0.045	1.92 ± 0.12
AUGCAA	1.52 ± 0.029	1.66 ± 0.12
AUGCAC	1.714 ± 0.0048	1.86 ± 0.081
AUCCAU	1.65 ± 0.048	1.81 ± 0.088
AUCCAA	1.56 ± 0.053	1.73 ± 0.12
AUCCAC	1.718 ± 0.016	1.85 ± 0.088
AUCCAG	1.719 ± 0.012	1.85 ± 0.13
GUCUCA	1.7 ± 0.035	1.83 ± 0.14
GUCUCG	1.867 ± 0.0092	1.88 ± 0.073

Variant	normalized RNA/DNA level without ligand (log10) (cyclic di-GMP [1])	normalized RNA/DNA level with ligand (log10) (cyclic di-GMP [2])
GUCUCU	1.714 ± 0.011	1.86 ± 0.095
GUCUCC	1.82 ± 0.041	1.89 ± 0.15
AUCGAC	1.631 ± 0.012	1.8 ± 0.075
AUCGAU	1.56 ± 0.076	1.77 ± 0.063
AUCGAG	1.56 ± 0.058	1.78 ± 0.1
AUCGAA	1.45 ± 0.084	1.67 ± 0.09
CUCGCC	1.784 ± 0.0038	1.86 ± 0.095
CUCGCG	1.857 ± 0.014	1.91 ± 0.039
CUCGCA	1.66 ± 0.047	1.81 ± 0.14
CUGAAG	1.59 ± 0.018	1.73 ± 0.03
CUGAAC	1.603 ± 0.0055	1.77 ± 0.084
AUCCGG	1.85 ± 0.024	1.93 ± 0.023
AUCCGC	1.76 ± 0.032	1.88 ± 0.13
AUCCGA	1.56 ± 0.017	1.73 ± 0.15
AUCCGU	1.74 ± 0.041	1.89 ± 0.12
AUCCCU	1.7543 ± 0.001	1.91 ± 0.07
AUCCCC	1.8 ± 0.048	1.92 ± 0.099
AUCCCA	1.76 ± 0.024	1.86 ± 0.091
